The target in experiment [1] is T1, human mesothelin (MSLN) (human, UniProt Q13421 296-580, limits assumed).
T1 construct: Antigen of the Octet KD values
Kind of experiment: BLI (Octet), multiple concentrations, bsAb in 1+1 Fab-scFv-Fc format; lower table, column 'human MSLN (M)'. For orientation: In BLI a coated tip is dipped into the sample, and binding shifts an interference pattern.

Experiment [2] has as its target T1, human mesothelin (MSLN). Kind of experiment: BLI (Octet), bsAb in 1+1 Fab-scFv-Fc format.
In experiment [3] the target is T2, MSLN on OVCAR8 cells (~90K MSLN antigens/cell) (UniProt Q13421 296-598). Put plainly: binding to OVCAR8 cells, MFI APC against mAb concentration.
Experiment [4] has as its target T1, human mesothelin (MSLN). Put plainly: KD quoted in the FIG. 25 legend; Octet (BLI) per FIGS. 20-21.
Experiment [5] addresses T2, MSLN on OVCAR8 cells (~90K MSLN …). Kind of experiment: binding to OVCAR8 cells, MFI APC against mAb concentration. The source holds these as a separate data set.
The target of experiment [6] is T1, human mesothelin (MSLN). Kind of experiment: BLI (Octet), multiple concentrations, bsAb in 1+1 Fab-scFv-Fc format.
The target in another experiment is T3, human CD28 (human, UniProt P10747 19-152, limits assumed).
T3 construct: also called Cluster of Differentiation 28; Tp44
Put plainly: label in the legend box: nominal affinity of the CD28 binding domain (paragraph 422 calls such label values KD); method not stated on the sheet.

The target of experiment [7] is T1, human mesothelin (MSLN). Put plainly: label in the legend box: nominal affinity of the MSLN binding domain (paragraph 422 calls such label values KD); method not stated on the sheet.
Experiment [8] addresses T4, MSLN on OVCAR8 cells (~90K MSLN antigens/cell) (UniProt Q13421 296-598).
T4 construct: whole, on cells; Endogenous expression on a cancer cell line
Put plainly: flow cytometry on OVCAR8 cells, 1 h at 4 C, anti-human-Fc A647 secondary. The method, then: In this experiment, 50,000 OVCAR8 cells (˜90K MSLN antigens/cell) were seeded per well in a plate. Anti-human-Fc secondary (A647) was added for 30 min at 4° C., and binding was assessed via FACs. FIG. 39C depicts that the CD28×MSLN bsAbs in neither 1+1-Fab-scFv format nor the 2+1 mAb-scFv format antibodies show any significant off target binding. In this experiment, 50,000 SKOV3 cells (˜9K MSLN antigens/cell) were seeded per well in a plate. Anti-human-Fc secondary (A647) was added for 30 min at 4° C., and binding was assessed via FACs.
In order to assess the binding of MSLN×CD28 bsAbs in different formats, an experiment was conducted in which 50,000 OVCAR8 cells (˜90K MSLN antigens/cell) were seeded per well in a plate. Anti-human-Fc secondary (A647) was added for 30 min at 4° C., and binding was assessed via FACs.
A general note: A flow cytometer gives signals particle by particle.

The record followed here is US20230340128A1 (Xencor, published 2023).

Usually Kd stands for the equilibrium constant for the complex coming apart. A high value points to lower affinity. One may read the koff as the rate constant with which the complex falls apart. A low value points to a long-lived complex. In general, kon refers to the second-order rate constant of association. Read a high kon as faster complex formation. As a reminder, the EC50 (read off the curve) is the concentration giving half of the maximal effect.

Where a chain is given by its changes, count along the chain named.

B1: XENP32561 (bispecific antibody)
chain 1: QVQLVQSGAEVKKPGASVKVSCKASGYTFTSYWMHWVRQAPGQGLEWMGMIHPNSDNTIYYEKFQGRVTMTVDKSISTAYMELSRLRSDDTAVYYCAIIITPVVPKFDYWGQGTLVTVSSASTKGPSVFPLAPSSKSTSGGTAALGCLVKDYFPEPVTVSWNSGALTSGVHTFPAVLQSSGLYSLSSVVTVPSSSLGTQTYICNVNHKPSDTKVDKKVEPKSCDKTHTCPPCPAPPVAGPSVFLFPPKPKDTLMISRTPEVTCVVVDVKHEDPEVKFNWYVDGVEVHNAKTKPREEEYNSTYRVVSVLTVLHQDWLNGKEYKCKVSNKALPAPIEKTISKAKGQPREPQVYTLPPSREEMTKNQVSLTCDVSGFYPSDIAVEWESDGQPENNYKTTPPVLDSDGSFFLYSKLTVDKSRWEQGDVFSCSVMHEALHNHYTQKSLSLSPGK
chain 2: not shown
chain 3: DIVMTQSPDSLAVSLGERATINCKASHSVGTSVAWYQQKPGQSPKLLIYWASTRHTGVPDRFTGSGSGTDFTLTISSLQAEDVAVYFCQQYSSYPLTFGAGTKLEIKRTVAAPSVFIFPPSDEQLKSGTASVVCLLNNFYPREAKVQWKVDNALQSGNSQESVTEQDSKDSTYSLSSTLTLSKADYEKHKVYACEVTHQGLSSPVTKSFNRGEC
B1 returned a dissociation constant (Kd) with human mesothelin (MSLN) [1] of 450 pM. In the experiment with human mesothelin (MSLN) [2], this molecule showed a Kd of 355 pM, a Response of 1.08, a koff of 0.000215 s⁻¹ and a kon of 606000 M⁻¹ s⁻¹. Also, the “EC50 (read off the curve)” value in experiment [3] was ~0.2 µg/mL.

B2: XENP32745 (bispecific antibody)
chain 1: B1 chain 1
chain 2: QVQLVQSGAEVKKPGASVKVSCKASGYTFTSYWMHWVRQAPGQGLEWMGMIHPNSDNTIYYEKFQGRVTMTVDKSISTAYMELSRLRSDDTAVYYCAIIITPVVPKFDYWGQGTLVTVSSASTKGPSVFPLAPSSKSTSGGTAALGCLVKDYFPEPVTVSWNSGALTSGVHTFPAVLQSSGLYSLSSVVTVPSSSLGTQTYICNVNHKPSNTKVDKKVEPKSCGGGGSGGGGSQAVVTQEPSLTVSPGGTVTLTCGSSTGAVTTSNYANWVQQKPGKSPRGLIGGTNKRAPGVPARFSGSLLGGKAALTISGAQPEDEADYYCALWYSNHWVFGGGTKLTVLGKPGSGKPGSGKPGSGKPGSEVQLVESGGGLVQPGGSLRLSCAASGFTFSTYAMNWVRQAPGKGLEWVGRIRSKANNYATYYADSVKGRFTISRDDSKNTLYLQMNSLRAEDTAVYYCVRHGNFGDSYVSWFAYWGQGTLVTVSSGGGGSGGGGSKTHTCPPCPAPPVAGPSVFLFPPKPKDTLMISRTPEVTCVVVDVKHEDPEVKFNWYVDGVEVHNAKTKPREEQYNSTYRVVSVLTVLHQDWLNGKEYKCKVSNKALPAPIEKTISKAKGQPREPQVYTLPPSREQMTKNQVKLTCLVKGFYPSDIAVEWESNGQPENNYKTTPPVLDSDGSFFLYSKLTVDKSRWQQGNVFSCSVMHEALHNHYTQKSLSLSPGK
chain 3: B1 chain 3
Molecule B2 returned a Kd with human mesothelin (MSLN) [4] of 450 pM. Moreover, in [3], the “EC50 (read off the curve)” value is ~0.05 µg/mL.

B3: XENP31697 (bispecific antibody)
chain 1: B1 chain 1
chain 2: not shown
chain 3: B1 chain 3 with S28D
In the experiment with human mesothelin (MSLN) [1], B3 displayed a Kd of 280 pM. The “EC50 (read off the curve)” value in [5] is ~0.07 µg/mL.

B4: XENP32937 (bispecific antibody)
chain 1: B1 chain 1 with E62Q
chain 2: not shown
chain 3: B1 chain 3 with S28D, S92Y
For B4, in the experiment with human mesothelin (MSLN) [6], the affinity, expressed as Kd, was 10200 pM; the koff was 0.00822 s⁻¹; the kon came to 803000 M⁻¹ s⁻¹.

B5: XENP31717 (bispecific antibody)
chain 1: B1 chain 1
chain 2: B2 chain 2
chain 3: B1 chain 3 with S28D
In the experiment with human mesothelin (MSLN) [4], B5 had a Kd of 280 pM. Also, the “EC50 (read off the curve)” value in [5] was ~0.04 µg/mL.

B6: XENP44475 (bispecific antibody)
heavy: QVQLVQSGAEVKKPGASVKVSCKASGYTFTSYWMHWVRQAPGQGLEWMGMIHPNSDNTIYYEKFQGRVTMTVDKSISTAYMELSRLRSDDTAVYYCAIIITPVVPKFDYWGQGTLVTVSSASTKGPSVFPLAPSSKSTSGGTAALGCLVKDYFPEPVTVSWNSGALTSGVHTFPAVLQSSGLYSLSSVVTVPSSSLGTQTYICNVNHKPSDTKVDKKVEPKSCGGGGSGGGGSQVQLVQSGAEVKKPGASVKVSCKASGYTFTSYWMHWVRQAPGQGLEWMGMIHPNSDNTIYYEKFQGRVTMTVDKSISTAYMELSRLRSDDTAVYYCAIIITPVVPKFDYWGQGTLVTVSSASTKGPSVFPLAPSSKSTSGGTAALGCLVKDYFPEPVTVSWNSGALTSGVHTFPAVLQSSGLYSLSSVVTVPSSSLGTQTYICNVNHKPSDTKVDKKVEPKSCDKTHTCPPCPAPPVAGPSVFLFPPKPKDTLMISRTPEVTCVVVDVKHEDPEVKFNWYVDGVEVHNAKTKPREEEYNSTYRVVSVLTVLHQDWLNGKEYKCKVSNKALPAPIEKTISKAKGQPREPQVYTLPPSREEMTKNQVSLTCDVSGFYPSDIAVEWESDGQPENNYKTTPPVLDSDGSFFLYSKLTVDKSRWEQGDVFSCSVLHEALHSHYTQKSLSLSPGK
scFv-Fc: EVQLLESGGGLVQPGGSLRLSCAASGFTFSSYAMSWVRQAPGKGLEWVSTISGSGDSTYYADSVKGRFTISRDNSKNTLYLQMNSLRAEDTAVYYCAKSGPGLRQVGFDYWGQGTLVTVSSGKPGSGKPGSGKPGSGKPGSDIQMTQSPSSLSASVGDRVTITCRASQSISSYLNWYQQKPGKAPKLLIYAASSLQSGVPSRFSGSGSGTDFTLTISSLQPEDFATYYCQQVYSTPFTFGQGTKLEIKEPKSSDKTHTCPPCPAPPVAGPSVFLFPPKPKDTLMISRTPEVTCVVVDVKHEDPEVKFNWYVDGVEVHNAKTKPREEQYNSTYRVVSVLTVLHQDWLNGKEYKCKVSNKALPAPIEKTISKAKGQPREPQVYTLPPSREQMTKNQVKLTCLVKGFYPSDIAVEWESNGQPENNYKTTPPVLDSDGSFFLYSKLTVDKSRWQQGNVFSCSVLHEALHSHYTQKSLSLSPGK
light 1: B1 chain 3 with S28D
light 2: B1 chain 3 with S28D
notes: also called XENP44475 MSLN (0.3 nM) x CD28 (180 nM) 2+1 Fab2-Fc x scFv-Fc
B6: the Kd with human CD28 was determined as 180000 pM; with human mesothelin (MSLN) [7] it was 300 pM. Also, the “EC50 (read off the curve)” value in experiment [8] was ~0.005 µg/mL.

B7: XENP44469 (bispecific antibody)
heavy 1: B1 chain 1 with M430L, N436S
heavy 2: not shown
light 1: B1 chain 3 with S28D
light 2: B1 chain 3 with S28D
notes: also called XENP44469 MSLN (0.3 nM) x CD28 (180 nM) 2+1 Fab2-scFv-Fc
For the molecule B7, the dissociation constant (Kd) in the experiment with human CD28 stood at 180000 pM; with human mesothelin (MSLN) [7] it was 300 pM. In addition, in [8], the “EC50 (read off the curve)” value is ~0.004 µg/mL.
